PMC10718521, “Complexity of αvβ6-integrin targeting RGD peptide trimers: emergence of non-specific binding by synergistic interaction” (RSC Medicinal Chemistry, 2023)

Key:
[1] = format: physicochemical; details: pH 7.4
Method: The trimers were labeled with ^68Ga for biodistribution and small-animal PET experiments employing a fully automated method.[39] Non-radioactive reference compounds were obtained by complexation of equimolar amounts of ^natGa^3+ in form of the aq. chloride solution.[39] The polarity of the ^68Ga or ^natGa^3+ containing conjugates, respectively, was assessed by two established proxies, namely the n-octanol/water distribution coefficient at pH 7.4, log D7.4, and the retention time tR on a reverse-phase HPLC column with a suitable liquid-phase gradient (10–50% acetonitrile in water with 0.1% trifluoroacetic acid) (see Fig. 2a). […] A measurable decrease of the log D7.4 was only observed for ≥3 Tyr. […]
(§1) Unless otherwise noted, the materials and the instrumentation used (analytical and preparative HPLC, ESI-MS, gamma counter, centrifuge), and the experimental procedures (^68Ga radiolabeling and radio-TLC for quality control, determination of log D7.4, cultivation of H2009 human lung adenocarcinoma cells, generation of tumor xenografts in CB17 SCID mice, small-animal PET, and biodistribution) were described before.[19] All animal experiments have been carried out according to applicable law and institutional guidelines of Technical University of Munich, and were approved by the responsible local authority (Regierung von Oberbayern). The H2009 cells were regularly authenticated and tested for mycoplasma contamination. The affinities of the pentynoic amide functionalized peptides were determined employing a well-established ELISA protocol on immobilized integrins.[36] TRAP-triazide,[38]FF (previously termed AvB6),[32] and YY (also referred to as Tyr2-alkyne)[33] were synthesized as described previously. RP-HPLC for assessment of compound polarity was done on a 150 × 4.6 mm ReproSil-Pur 120 C18-AQ 5 μm column, with a flow of 0.75 mL min^−1 and a gradient of 10–50% MeCN in water, both containing 0.1% trifluoroacetic acid, within 15 min. The required ^natGa-complexes of the peptide trimers were synthesized by reaction with equimolar amounts of aq. GaCl3 as described.[19]

[2] = in vivo; set-up: species or system mice; details: CB17 SCID, mouse, total radioactivity
Description: The biodistribution of all ^68Ga-labeled peptide trimers was investigated in severe combined immunodeficiency (SCID) mice bearing subcutaneous xenografts of the αvβ6-integrin expressing human lung adenocarcinoma cell line H2009 on their right shoulders.
as §1

[3] = tumor/organ ratio Heart (myocard)
[4] = tumor/organ ratio Large intestine (empty)
[5] = tumor/organ ratio Small intestine (empty)
[6] = tumor/organ ratio Stomach (empty)

CC(C)C[C@@H]1NC(=O)[C@H](CC(=O)O)NC(=O)CNC(=O)[C@H](CCCNC(=N)N)NC(=O)[C@H](Cc2ccccc2)NC(=O)[C@H](CCCCNC(=O)CCc2cn(CCCNC(=O)CCP(=O)(O)CN3CCN(CP(=O)(O)CCC(=O)NCCCn4cc(CCC(=O)NCCCC[C@H]5C(=O)N[C@@H](Cc6ccccc6)C(=O)N[C@@H](CCCNC(=N)N)C(=O)NCC(=O)N[C@@H](CC(=O)O)C(=O)N[C@@H](CC(C)C)C(=O)N[C@@H](C)C(=O)N[C@@H](Cc6ccccc6)C(=O)N6CCC[C@@H]6C(=O)N5C)nn4)CCN(CP(=O)(O)CCC(=O)NCCCn4cc(CCC(=O)NCCCC[C@H]5C(=O)N[C@@H](Cc6ccc(O)cc6)C(=O)N[C@@H](CCCNC(=N)N)C(=O)NCC(=O)N[C@@H](CC(=O)O)C(=O)N[C@@H](CC(C)C)C(=O)N[C@@H](C)C(=O)N[C@@H](Cc6ccc(O)cc6)C(=O)N6CCC[C@@H]6C(=O)N5C)nn4)CC3)nn2)N(C)C(=O)[C@H]2CCCN2C(=O)[C@H](Cc2ccccc2)NC(=O)[C@H](C)NC1=O (68Ga complex, metal not drawn) [Y2]
log D7.4 [1]: −1.4 to −1.5
logD [1]: -1.5 ± 0.2
tissue uptake at 1.5 h ([2]; Adrenals uptake): 1.5 ± 1.28 %ID/g
tissue uptake at 1.5 h ([2]; Blood uptake): 2.26 ± 0.26 %ID/g
tissue uptake at 1.5 h ([2]; Heart (myocard) uptake): 1.08 ± 0.13 %ID/g
tissue uptake at 1.5 h ([2]; Kidneys uptake): 92 ± 12.2 %ID/g
tissue uptake at 1.5 h ([2]; Large intestine (empty) uptake): 3.81 ± 0.53 %ID/g
tissue uptake at 1.5 h ([2]; Liver uptake): 3.37 ± 0.68 %ID/g
tissue uptake at 1.5 h ([2]; Lung uptake): 4.8 ± 0.5 %ID/g
tissue uptake at 1.5 h ([2]; Muscle uptake): 0.72 ± 0.15 %ID/g
tissue uptake at 1.5 h ([2]; Pancreas uptake): 0.65 ± 0.12 %ID/g
tissue uptake at 1.5 h ([2]; Small intestine (empty) uptake): 2.55 ± 0.27 %ID/g
tissue uptake at 1.5 h ([2]; Spleen uptake): 2.51 ± 0.33 %ID/g
tissue uptake at 1.5 h ([2]; Stomach (empty) uptake): 7.17 ± 0.58 %ID/g
tissue uptake at 1.5 h ([2]; Tumor H2009 uptake): 7.95 ± 1.02 %ID/g
tissue to tissue ratio at 1.5 h ([2]; tumor/organ ratio Adrenals): 8.8 ± 6.2
tissue to tissue ratio at 1.5 h ([2]; tumor/organ ratio Blood): 3.5 ± 0.5
tissue to tissue ratio at 1.5 h [2, 3]: 7.4 ± 0.6
tissue to tissue ratio at 1.5 h ([2]; tumor/organ ratio Kidneys): 0.1
tissue to tissue ratio at 1.5 h [2, 4]: 2.1 ± 0.2
tissue to tissue ratio at 1.5 h ([2]; tumor/organ ratio Liver): 2.4 ± 0.4
tissue to tissue ratio at 1.5 h ([2]; tumor/organ ratio Lung): 1.7 ± 0.2
tissue to tissue ratio at 1.5 h ([2]; tumor/organ ratio Muscle): 11.4 ± 2.4
tissue to tissue ratio at 1.5 h ([2]; tumor/organ ratio Pancreas): 12.7 ± 2.9
tissue to tissue ratio at 1.5 h [2, 5]: 3.1 ± 0.5
tissue to tissue ratio at 1.5 h ([2]; tumor/organ ratio Spleen): 3.2 ± 0.7
tissue to tissue ratio at 1.5 h [2, 6]: 1.1 ± 0.1

CC(C)C[C@@H]1NC(=O)[C@H](CC(=O)O)NC(=O)CNC(=O)[C@H](CCCNC(=N)N)NC(=O)[C@H](Cc2ccccc2)NC(=O)[C@H](CCCCNC(=O)CCc2cn(CCCNC(=O)CCP(=O)(O)CN3CCN(CP(=O)(O)CCC(=O)NCCCn4cc(CCC(=O)NCCCC[C@H]5C(=O)N[C@@H](Cc6ccccc6)C(=O)N[C@@H](CCCNC(=N)N)C(=O)NCC(=O)N[C@@H](CC(=O)O)C(=O)N[C@@H](CC(C)C)C(=O)N[C@@H](C)C(=O)N[C@@H](Cc6ccc(O)cc6)C(=O)N6CCC[C@@H]6C(=O)N5C)nn4)CCN(CP(=O)(O)CCC(=O)NCCCn4cc(CCC(=O)NCCCC[C@H]5C(=O)N[C@@H](Cc6ccccc6)C(=O)N[C@@H](CCCNC(=N)N)C(=O)NCC(=O)N[C@@H](CC(=O)O)C(=O)N[C@@H](CC(C)C)C(=O)N[C@@H](C)C(=O)N[C@@H](Cc6ccc(O)cc6)C(=O)N6CCC[C@@H]6C(=O)N5C)nn4)CC3)nn2)N(C)C(=O)[C@H]2CCCN2C(=O)[C@H](Cc2ccccc2)NC(=O)[C@H](C)NC1=O (68Ga complex, metal not drawn) [Y2F]
log D7.4 [1]: −1.4 to −1.5
logD [1]: -1.5 ± 0.1
tissue uptake at 1.5 h ([2]; Adrenals uptake): 0.84 ± 0.07 %ID/g
tissue uptake at 1.5 h ([2]; Blood uptake): 1.62 ± 0.2 %ID/g
tissue uptake at 1.5 h ([2]; Heart (myocard) uptake): 0.76 ± 0.06 %ID/g
tissue uptake at 1.5 h ([2]; Kidneys uptake): 107 ± 7.49 %ID/g
tissue uptake at 1.5 h ([2]; Large intestine (empty) uptake): 3.96 ± 1.16 %ID/g
tissue uptake at 1.5 h ([2]; Liver uptake): 2.09 ± 0.17 %ID/g
tissue uptake at 1.5 h ([2]; Lung uptake): 5.62 ± 1.34 %ID/g
tissue uptake at 1.5 h ([2]; Muscle uptake): 0.66 ± 0.12 %ID/g
tissue uptake at 1.5 h ([2]; Pancreas uptake): 0.38 ± 0.04 %ID/g
tissue uptake at 1.5 h ([2]; Small intestine (empty) uptake): 2.51 ± 0.5 %ID/g
tissue uptake at 1.5 h ([2]; Spleen uptake): 3.84 ± 1.14 %ID/g
tissue uptake at 1.5 h ([2]; Stomach (empty) uptake): 6.99 ± 3.4 %ID/g
tissue uptake at 1.5 h ([2]; Tumor H2009 uptake): 7.99 ± 1.62 %ID/g
tissue to tissue ratio at 1.5 h ([2]; tumor/organ ratio Adrenals): 9.6 ± 2.2
tissue to tissue ratio at 1.5 h ([2]; tumor/organ ratio Blood): 4.9 ± 1
tissue to tissue ratio at 1.5 h [2, 3]: 10.6 ± 2
tissue to tissue ratio at 1.5 h ([2]; tumor/organ ratio Kidneys): 0.1
tissue to tissue ratio at 1.5 h [2, 4]: 2.1 ± 0.5
tissue to tissue ratio at 1.5 h ([2]; tumor/organ ratio Liver): 3.8 ± 0.9
tissue to tissue ratio at 1.5 h ([2]; tumor/organ ratio Lung): 1.4 ± 0.2
tissue to tissue ratio at 1.5 h ([2]; tumor/organ ratio Muscle): 12.2 ± 1.5
tissue to tissue ratio at 1.5 h ([2]; tumor/organ ratio Pancreas): 20.8 ± 3.9
tissue to tissue ratio at 1.5 h [2, 5]: 3.2 ± 0.4
tissue to tissue ratio at 1.5 h ([2]; tumor/organ ratio Spleen): 2.2 ± 0.5
tissue to tissue ratio at 1.5 h [2, 6]: 1.3 ± 0.3
